This is an account of results in patent US20090104207A1 (published 2009).

One experiment has as its target IGP 3472 (hepatitis C virus). The experiment is described as follows: ELISA: biotinylated peptide on streptavidin-coated plate, serial dilution of 5D2; EC50 from Prism, shown as difference in log EC50 versus IGP 2254. Background: An ELISA detects its analyte on a solid surface through an enzyme-linked reagent.
The target in the next experiment is T1, IGP 2254 (hepatitis C virus, SMILES …).
T1 peptide: Biotin-GGITGHRMAWDMMMNWS-NH2
The experiment can be described thus: BIAcore, antibody immobilized, peptide in solution. For orientation: Surface plasmon resonance follows binding to a sensor surface in real time, without labels.

A further experiment concerns the target IGP 2242 (hepatitis C virus). The experiment can be described thus: ELISA, biotinylated peptide on streptavidin plates (FIG. 9).
The next experiment concerns the target IGP 2241 (hepatitis C virus). The description is as above.
Another experiment concerns the target T2, IGP 2138 (hepatitis C virus).
T2 construct: also called WDMMMNW
The experiment is described as above.

Another experiment deals with T3, IGP 2137 (hepatitis C virus).
T3 construct: also called RMAWDM
The experiment can be described thus: peptide ELISA (fine-mapping).

Experiment [1] has as its target HCV E1 envelope glycoprotein, genotype 2a isolate JFH1, on retroviral pseudoparticles (hepatitis C virus genotype 2a, UniProt Q99IB8 192-383). The experiment is described as follows: cell-based or functional assay.
The target of experiment [2] is HCV E1 envelope glycoprotein, genotype 4a isolate UKN4a, on retroviral pseudoparticles (hepatitis C virus genotype 4a). The experiment is described as follows: cell-based or functional assay.
Experiment [3] concerns the target HCV E1 envelope glycoprotein, genotype 1a strain H77, on retroviral pseudoparticles (hepatitis C virus genotype 1a strain H77, UniProt P27958 192-383). The experiment can be described thus: cell-based or functional assay.

Broadly, the Kd is the equilibrium constant for the complex coming apart. Low values mean a tighter complex, high ones a looser complex. As a reminder, the koff is a measure of how fast the partners let go of each other. One may read the kon as the second-order rate constant of association. A low value points to slower complex formation.

*: point of attachment. Biotin = O=C1N[C@H]2[C@H](CS[C@H]2CCCCC(=O)*)N1

Sequence of HCV E1 envelope glycoprotein, genotype 2a isolate JFH1, on retroviral pseudoparticles (Q99IB8 192-383 limits assumed): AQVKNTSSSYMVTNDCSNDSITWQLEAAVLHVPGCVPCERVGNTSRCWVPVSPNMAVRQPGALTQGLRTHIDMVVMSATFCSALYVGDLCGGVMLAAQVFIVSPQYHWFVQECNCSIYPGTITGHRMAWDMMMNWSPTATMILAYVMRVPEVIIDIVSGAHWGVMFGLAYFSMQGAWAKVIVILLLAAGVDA
Sequence of HCV E1 envelope glycoprotein, genotype 1a strain H77, on retroviral pseudoparticles (P27958 192-383 limits assumed): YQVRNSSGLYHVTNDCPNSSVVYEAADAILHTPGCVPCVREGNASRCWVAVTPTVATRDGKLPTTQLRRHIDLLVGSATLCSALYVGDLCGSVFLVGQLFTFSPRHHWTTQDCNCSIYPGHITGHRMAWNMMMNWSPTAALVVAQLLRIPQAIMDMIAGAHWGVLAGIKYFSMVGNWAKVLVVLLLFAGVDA

B1: 5D2 (antibody, V domains shown)
VH: QVQLVESGGGVVQPGRSLRLSCVASGFTFSHYAMHWIRQAPGKGLEWVAVVSYDGSNKFYVDSVKGRFTISRDNSKNTVYLQMNSLRAVDTAVYYCARDPGVVTGSWSDSDGPPIHWGQGTLVTVSS
VL: DIVVTQSPDSLAVSLGERATITCKSSQSVFYSSNNKNYLGWYQQKPGQPPKLLIYWASTRASGVPDRFSGSGSGTDFTLTISSLQAEDVAVYYCQQYYTSWAFGQGTKVEIKR
notes: also called 5D2H9; IGH 534
In the case of B1, the binding result was “no binding” in the experiment with IGP 3472; “binds” in the experiment with IGP 2242; “no binding” with IGP 2241; “no binding” with IGP 2138; “no binding” with IGP 2137. The same molecule yielded a Kd with IGP 2254 of 0.06 nM. The same molecule came in with a koff in the experiment with IGP 2254 of 9.46e-05 s⁻¹. In addition, in the experiment with IGP 2254, the kon turned out to be 1.71e+06 M⁻¹ s⁻¹. Besides, the “lowest concentration of antibody exhibiting at least 50% neutralization of HCVpp versus control” value is 6.2 µg/mL in [1], more than 25 µg/mL in experiment [2] and 25 µg/mL in experiment [3].
